Test [1] has as its system rat epididymal adipocytes. The test can be described thus: Lipolytic activity in rat adipocytes. It counts as cell-based. The note with it: concentrations between 233 and 700 nM. How it is done: Lipolytic Activity in Rat Adipocytes—White adipocytes were prepared from finely minced epididymal adipose tissue of male Wistar rats (400 g) using collagenase digestion, as described (Beck S A, et al. Production of lipolytic and proteolytic factors by a murine tumor-producing cachexia in the host. Cancer Res 47:5919-5923, 1987), Lipolytic activity was determined by incubating 10^5-2×10^5 adipocytes for 2 h in 1 ml Krebs-Ringer bicarbonate buffer, pH 7.2, and the extent of lipolysis was determined by measuring the glycerol released (Wieland O. Glycerol U V method. Methods of Enzymatic Analysis, edited by Bergmeyer H U, Academic Press, London, pp 1404-1409, 1974). Spontaneous glycerol release was measured by incubating adipocytes alone. Lipolytic activity was expressed as μmol glycerol released/10^5 adipocytes/2 h.

The test system of test [2] is protein expression in WAT, BAT and gastrocnemius muscle. The test can be described thus: Western blot of WAT, BAT and gastrocnemius muscle of rats treated with ZAG. It counts as in vivo, Wistar rats. As for the experimental part: Samples of cytosolic protein (10 μg) were resolved on 12% sodium dodecylsuiphate polyacrylamide gel electrophoresis and the proteins were then transferred onto 0.45 μm nitrocellulose menibranes, which had been blocked with 5% N,Tarvel in ids-buffered saline, pH 7.5, at 4° C. overnight, and following four 15 min washes with 0.1% Tween in PBS, incubation with the secondary antibody was performed for 1 h at room temperature. Development was by ECL.

Test [3] can be described thus: Insulin tolerance test in ob/ob mice administered ZAG for 3 days. The format is in vivo. How it is done:
An insulin tolerance test was also carried out in ob/ob mice administered. ZAG for 3 days (FIG. 23). Animals were administered two doses of insulin (10 and 20 U/kg) by i.p. injection and blood glucose was measured over the next 60 min. […] The glucose disappearance curve for 20 U/kg +PBS was almost identical to 10 U/kg +ZAG, so at this dose level ZAG is reducing the requirement for insulin by 50%, but this can be overcome by giving more insulin.

A further test concerns adipocytes. The experiment in a line: Expression of phospho HSL / HSL in adipocytes incubated 3 h with ZAG or isoprenaline. The following applies: 3 h; isoprenaline 10 μM or ZAG 0.46 μM. The format is cell-based, mice.

B1: Zinc-α2-glycoprotein (protein, listed as Homo sapiens)
chain: QENQDGRYSLTYIYTGLSKHVEDVPAFQALGSLNDLQFFRYNSKDRKSQPMGLWRQVEGMEDWKEDSQLQKAREDMETLKDIVEYYNDSNGSHVLQGRFGCEIENNRSSGAFWKYYYDGKDYIEFNKEIPAWVPFDPAAQITKQKWEAEPVYVQRAKAYLEEECPATLRKYLKYSKNILDRQDPPSVVVTSHQAPGEKKKLKCLAYDFYPGKIDVHWTRAGQVQEPELRGDVLHNGNGTYQSWVVVAVPPQDTAPYSCHVQHSSLAQPLVVPWEAS
notes: recombinant human Zinc-α2-glycoprotein, lipid mobilizing factor, expressed in HEK293F cells
As to B1, in test [1], the glycerol release result is “dose-related increase”. The “expression of glucose transporter 4 (GLUT4) in BAT, WAT and skeletal muscle” value in test [2] (10 days) is listed as “increased expression”. Also, in test [2] (total amount did not change), the “expression of phosphorylated forms of PKR and eIF2 α-subunit in gastrocnemius muscle” value is “significant reduction”. Moreover, in test [3] (insulin 10 U/kg i.p., vs PBS), the “insulin tolerance test, blood glucose response” value is given as “increased sensitivity to insulin”. For the same molecule, the “insulin tolerance test, difference ZAG versus PBS” value in test [3] (insulin 20 U/kg i.p.) is given as “difference disappeared”. Also, in the test on adipocytes, the “expression of phospho HSL in adipocytes” value is on record as “increased expression of phospho HISL”.
